Numbering of substitutions follows the chain as printed.
T1: human LRRC15 expressed on cells (human, UniProt Q8TF66 22-581)
T1 construct: whole, on cells; On HEK293 cells transfected with LRRC15/ZsGreen1 (Retrogenix), on HT29 cells transfected with human LRRC15, and endogenous on Saos-2; also called LRRC15/ZsGreen1 transfected HEK293 cells; HT29-LRRC15
T1 sequence (looked up): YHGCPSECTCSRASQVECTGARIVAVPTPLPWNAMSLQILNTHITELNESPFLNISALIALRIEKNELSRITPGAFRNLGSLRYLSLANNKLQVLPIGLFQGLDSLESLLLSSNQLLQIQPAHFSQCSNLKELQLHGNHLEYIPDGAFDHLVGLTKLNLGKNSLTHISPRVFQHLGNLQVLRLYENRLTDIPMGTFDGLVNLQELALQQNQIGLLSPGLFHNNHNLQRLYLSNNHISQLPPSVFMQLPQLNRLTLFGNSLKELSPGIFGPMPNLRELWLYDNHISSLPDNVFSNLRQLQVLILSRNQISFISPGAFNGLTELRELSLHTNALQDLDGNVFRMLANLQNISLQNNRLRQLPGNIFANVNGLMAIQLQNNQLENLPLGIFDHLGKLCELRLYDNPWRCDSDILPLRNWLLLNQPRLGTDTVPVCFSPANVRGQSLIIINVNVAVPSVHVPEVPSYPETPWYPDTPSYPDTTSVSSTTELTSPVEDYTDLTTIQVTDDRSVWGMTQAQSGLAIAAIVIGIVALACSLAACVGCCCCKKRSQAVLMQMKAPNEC

T2: human LRRC15 extracellular domain with C-terminal His tag (human, UniProt Q8TF66 22-538)
T2 construct: Recombinant, made in HEK293; the entry holds the extracellular domain and the His tag; SPR analyte; also called TPP-1545; hLRRC15 CT-His
T2 sequence: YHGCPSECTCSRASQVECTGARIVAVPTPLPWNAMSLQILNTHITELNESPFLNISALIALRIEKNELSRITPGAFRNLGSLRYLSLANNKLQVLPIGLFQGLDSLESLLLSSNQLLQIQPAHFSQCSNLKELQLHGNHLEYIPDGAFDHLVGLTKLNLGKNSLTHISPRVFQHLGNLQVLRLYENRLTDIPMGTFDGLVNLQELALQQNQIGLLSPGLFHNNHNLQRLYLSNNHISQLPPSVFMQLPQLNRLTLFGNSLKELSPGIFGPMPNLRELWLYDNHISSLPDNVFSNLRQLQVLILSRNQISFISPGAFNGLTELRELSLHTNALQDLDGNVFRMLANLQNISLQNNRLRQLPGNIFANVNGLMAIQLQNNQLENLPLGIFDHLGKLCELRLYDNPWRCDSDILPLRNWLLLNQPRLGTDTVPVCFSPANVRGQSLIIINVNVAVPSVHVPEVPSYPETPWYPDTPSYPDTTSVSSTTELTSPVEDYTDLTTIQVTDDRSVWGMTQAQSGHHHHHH

T3: cynomolgus (Macaca fascicularis) LRRC15 extracellular domain with C-terminal His tag (cynomolgus monkey (Macaca fascicularis), UniProt Q8TF66 22-538 (human entry))
T3 construct: Recombinant, made in HEK293; the entry holds the extracellular domain and the His tag; SPR analyte; also called TPP-9046
T3 chain: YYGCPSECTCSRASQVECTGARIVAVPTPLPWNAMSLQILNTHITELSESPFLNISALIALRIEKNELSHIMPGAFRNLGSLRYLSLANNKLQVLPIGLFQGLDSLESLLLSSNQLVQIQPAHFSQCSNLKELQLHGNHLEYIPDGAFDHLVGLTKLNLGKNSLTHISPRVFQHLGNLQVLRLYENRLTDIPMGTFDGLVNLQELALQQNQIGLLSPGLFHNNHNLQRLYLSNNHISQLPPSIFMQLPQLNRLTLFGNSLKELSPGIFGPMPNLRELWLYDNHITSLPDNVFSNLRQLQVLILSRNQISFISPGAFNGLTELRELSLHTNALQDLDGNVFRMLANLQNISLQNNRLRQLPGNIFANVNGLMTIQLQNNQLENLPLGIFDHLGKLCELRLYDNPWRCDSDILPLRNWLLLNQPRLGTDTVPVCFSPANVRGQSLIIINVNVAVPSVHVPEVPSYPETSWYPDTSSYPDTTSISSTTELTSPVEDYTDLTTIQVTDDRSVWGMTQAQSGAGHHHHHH

B1: TPP-12942 (antibody, human IgG1, kappa, V domains shown)
VH: EVQLVQSGAEVKKPGASVKVSCKASGYKFSSYWIEWVKQAPGQGLEWIGEILPGSDTTNYNEKFKDRATFTSDTSINTAYMELSRLRSDDTAVYYCARDRGNYRAWFGYWGQGTLVTVSS
VL: DIQMTQSPSSLSASVGDRVTITCRASQDISNYLNWYQQKPGGAVKFLIYYTSRLHSGVPSRFSGSGSGTDYTLTISSLQPEDFATYFCQQGEALPWTFGGGTKVEIKR
notes: Prior art humanized IgG1 kappa antibody, used as comparator; also called huM25; huM25-hIgG1Kappa
B2: TPP-17078 (antibody, human IgG1, kappa, V domains shown)
VH: B1 VH
VL: B1 VL with D28S, N31S, V44P, T51A, R53S, H55Q, F87Y, E92F, A93S
notes: also called 438H-M308-H05-hIgGkappa
B3: TPP-17421 (antibody, human IgG1, kappa, V domains shown)
VH: B1 VH with T57W, G108Q
VL: B1 VL with D28S, N31S, V44P, T51A, R53S, H55Q, F87Y, E92L, A93E
notes: also called 438H-M306-C11-hIgG1Kappa
B4: TPP-14389 (antibody, human IgG1, kappa, V domains shown)
VH: EVQLLESGGGLVQPGGSLRLSCAASGFTFSGYMMSWVRQAPGKGLEWVSGIYPSPGYTYYADSVKGRFTISRDNSKNTLYLQMNSLRAEDTAVYYCAREKASDLFGSYSEALDYWGQGTLVTVSS
VL: DIQMTQSPDSLSASVGDRVTITCRASQDVGSWLAWYQQKPGKAPKLLIFAASSLESGIPSRFSGSGSGTDFTLTISSLQPEDFATYYCQQANGFPLTFGGGTKVEIKR
notes: also called 13612-rec02-hIgG1Kappa

Each binder was assayed against T1, human LRRC15 expressed on cells (assay: flow cytometry, transfected HEK293, 12.5 µg/ml).

Row | Binder | Median Fluorescence AF647
1 | B1 | 726000
2 | B2 | 707000
3 | B3 | 736000

These binders were tested against T2, human LRRC15 extracellular domain with … (assay: SPR Biacore T200, 25°C, antibody captured, LRRC15 analyte).
Method: (§1) To assess the binding kinetics and affinity of anti-LRRC15 antibodies as well as their species cross-reactivity profile, binding assays were conducted using surface plasmon resonance (SPR). Binding assays were performed on a Biacore T200 instrument at 25° C. using assay buffer HBS EP+, 1 mg/ml BSA, 300 mM NaCl, 0.05% NaN3. Antibodies were captured via anti-human Fc IgGs covalently amine coupled to a CM5 sensor chip and human, mouse and cynomolgus LRRC15 were used as analytes in a concentration series from 1.56-200 nM in multi cycle kinetics mode. […] Obtained sensorgrams were fitted to a 1:1 Langmuir binding model to derive kinetic data.

Row | Binder | Kd
4 | B1 | 25 nM
5 | B2 | 1.7 nM
6 | B3 | 0.96 nM
7 | B4 | 5.9 nM

Each binder was assayed against T1, human LRRC15 expressed on cells (assay: flow cytometry, transfected HEK293, 2.5 µg/ml).

Row | Binder | Median Fluorescence AF647
8 | B1 | 746000
9 | B2 | 777000
10 | B3 | 649000

These binders were tested against T2, human LRRC15 extracellular domain with … (assay: calculated from SPR kd, 20°C).
Method: (§2) To assess if anti-LRRC-15 antibodies show a difference in binding at different temperatures, binding assays were conducted using surface plasmon resonance (SPR). Binding assays were performed on a Biacore T200 instrument at temperatures of 10° C., 20° C., 25° C. and 37° C. with assay buffer HBS EP+, 1 mg/ml BSA (bovine serum albumine), 300 mM NaCl, 0.05% NaN₃. Antibodies were captured via anti-human Fc IgGs covalently amine coupled to a CM5 sensor chip and human LRRC15 was used as an analyte in a concentration series from 1.56-200 nM in multi cycle kinetics mode. Pre-experiments were conducted to have an equal capture level at each temperature. Obtained sensorgrams were fitted to a 1:1 Langmuir binding model to derive kinetic data.

Row | Binder | Complex Half Life
11 | B1 | 0.218 h
12 | B2 | 4.18 h
13 | B3 | 4.48 h
14 | B4 | 0.41 h

What follows are binders tested against T1, human LRRC15 expressed on cells (assay: flow cytometry, transfected HEK293, 0 µg/ml).

Row | Binder | Median Fluorescence AF647
15 | B1 | 594
16 | B2 | 597
17 | B3 | 588

Each binder was assayed against T2, human LRRC15 extracellular domain with … (assay: calculated from SPR kd, 10°C).
Method: as §2

Row | Binder | Complex Half Life
18 | B1 | 0.963 h
19 | B2 | 14.8 h
20 | B3 | 9.63 h
21 | B4 | 1.6 h

Each binder was assayed against T2, human LRRC15 extracellular domain with … (assay: SPR (Example 6), overview table, repeats Table 9; head prints [M^-1]).
Method: as §1

Row | Binder | Kd
22 | B1 | 25 nM
23 | B2 | 1.7 nM
24 | B3 | 0.96 nM
25 | B4 | 5.9 nM

Molecular target: T3, cynomolgus (Macaca fascicularis) LRRC15 …
Test: as above
Method: as §1

Row | Binder | Kd
26 | B1 | 36 nM
27 | B2 | 1.8 nM
28 | B3 | 0.91 nM
29 | B4 | 9 nM

From patent US20240108766A1 (Bayer, published 2024)
